What was measured:
[1] = molecular target: 5C.C7 TCR (mouse (5C.C7 TCR transgenic mice))
[2] = molecular target: 5C.C7 TCR (mouse (5C.C7 TCR transgenic mice)); test: 2D micropipette adhesion frequency assay; biotinylated pMHC monomers on human RBCs by biotin–streptavidin; 5C.C7 T-cell blasts pre-incubated with 10 ug/mL anti-CD4 (GK 1.5); contact times 0.25-5 s, 50 cycles each; 25 °C (legend of Fig. 5); effective 2D constants from a probabilistic kinetic model
[3] = molecular target: 5C.C7 TCR (mouse (5C.C7 TCR transgenic mice)); test: FRET or BRET; ensemble Cy3/Cy5 FRET1 at the synapse; His-tagged Cy3-pMHC on a lipid bilayer (95 molecules/um^2) or a PEG-Ni2+ glass surface with ICAM-1 and B7-1; TCR on live primary 5C.C7 T cells labelled with scFv J1-Cy5; 37 °C
[4] = tested on: TCR microclusters of 5C.C7 T cells; test: TCR microcluster formation at the T-cell synapse; type: cell-based, mouse; details: 1 µM LA
Source text: TCRs form microclusters upon antigen stimulation (Movie S4). To measure the conformational dynamics of single TCR–pMHC bonds without possible interference from TCR microclusters, we used latrunculin A (LA) to prevent the formation of TCR microclusters during smFRET measurements. […] We then performed smFRET in the absence of TCR microclusters.
To test whether TCR–CD3ζ conformational changes were dependent on TCR signaling, we used an Src kinase inhibitor PP2[27] to block TCR signaling. Consistent with the results of a previous study,[21] […] To reveal the role of TCR signaling in TCR–CD3ζ conformational changes, we plotted the time trajectories of the normalized intramolecular TCR–CD3ζ distances against the stimulation time in the absence and presence of PP2 (Fig. 4d). In the absence of PP2, the intracellular CD3ζ chain quickly separated from the TCR extracellular domain upon TCR engagement with the K5 pMHC and then reached a stable, fully extended TCR–CD3ζ conformation.
To measure the TCR–pMHC bond distance by smFRET in the absence of CD4 binding, T cells were incubated with 10 μg/mL anti-CD4 antibody (GK 1.5, Biolegend) and 0.027 µg/µL of Cy5-J1 scFV for 30 min at 4 °C. After three washes, the cells were added to a lipid bilayer containing Cy3-pMHCs, and smFRET assays were performed in the continuous presence of 10 μg/mL anti-CD4 antibody at 37 °C using TIRF microscopy. […]

5C.C7 TCR = test: Single-molecule FRET (smFRET) measurement of TCR–pMHC bond distance on lipid bilayer (TIRF); type: cell-based, mouse; details: 1 µM LA, 1 h pretreatment and continuous presence, smFRET 37 °C, K5, MCC, 102S, 339–1295 trajectories per histogram
Protocol: We next performed Cy3/Cy5 single-molecule FRET (smFRET) on a lipid bilayer to measure the conformations of single TCR–pMHC bonds using TIRF microscopy (Fig. 2 and Fig. S1b). TCR–pMHC bond formation at live T-cell membrane brought the donor Cy3 and the acceptor Cy5 into close enough proximity to produce smFRET (Figs. 1a and 2a). The fluorescent intensities of Cy3 and Cy5 were simultaneously recorded in real time (Fig. 2b, top panel, and Fig. S4a), and the EFRET values were calculated based on the fluorescence intensities of the donor Cy3 and the acceptor Cy5 (Fig. 2b, bottom panel). […] By plotting the EFRET histogram and fitting it with a Gaussian function, we determined the most probale EFRET value of 0.7, corresponding to a 47 ± 3 Å distance between the 5C.C7 TCR and the super agonist K5 pMHC in a representative smFRET trajectory (Fig. 2c). […] We further measured the average TCR–pMHC bond distances using ensemble FRET on both a lipid bilayer and a glass surface (Figs. S4b and S7), and the results confirmed the single-bond measurements obtained using smFRET (Fig. 2d).
For the FRET measurements between TCRs and pMHCs on the cell surface (FRET1), we generated a peptide-exchangeable CLIP-IE^k molecule.[41] […] The protein fractions were analyzed by SDS-PAGE. […]

Row | Compound | separation between the TCR and CD3ζ after TCR–pMHC binding (transmembrane GFP/Alexa568 FRET2, lipid bilayer, 37 °C) [1] | AcKa (effective 2D affinity) [2] | AcKon (effective 2D on-rate) [2] | koff [2] | average synaptic E FRET1 [3] | also measured
1 | biotinylated monomeric IE^k covalently complexed with the MCC peptide (from UniProt P04230 30-225) (peptide-MHC) | 10 Å | 0.00015 µm^4 | 2e-05 µm^4 s^−1 | 1.3 s⁻¹ |  | 
2 | C/C1=C/C(=O)O[C@@H]2C[C@@H](CC[C@H](C)/C=C\C=C\CC1)O[C@@](O)([C@@H]1CSC(=O)N1)C2 [latrunculin A] |  |  |  |  |  | effect of LA on TCR microcluster formation [4]: no TCR microclusters were observed; effect on TCR–pMHC bond distances (latrunculin A) (5C.C7 TCR): very close to those measured in the presence of TCR microclusters; effect on TCR–pMHC bond distances (latrunculin A) (5C.C7 TCR; listed as LA): no differences in the TCR–pMHC bond distances
3 | biotinylated monomeric IE^k covalently complexed with the 102S peptide (from UniProt P04230 30-225) (peptide-MHC) | 5 Å | 1.6e-05 µm^4 | 2.4e-06 µm^4 s^−1 | 1.5 s⁻¹ |  | 

Now from value to compound, other results behind:

Row | separation between the TCR and CD3ζ after TCR–pMHC binding (transmembrane GFP/Alexa568 FRET2, lipid bilayer, 37 °C) [1] | AcKa (effective 2D affinity) [2] | AcKon (effective 2D on-rate) [2] | koff [2] | average synaptic E FRET1 [3] | Compound | also measured
4 | 15 Å | 0.00037 µm^4 | 3.6e-05 µm^4 s^−1 | 1 s⁻¹ |  | biotinylated monomeric IE^k covalently complexed with the K5 peptide (from UniProt P04230 30-225) (peptide-MHC) | 
5 |  |  |  |  | 0.54 | MCC(C)-Cy3 peptide on His-tagged IE^k (from UniProt P04230 30-225) (peptide-MHC) | 
6 |  |  |  |  | 0.79 | K5(C)-Cy3 peptide on His-tagged IE^k (from UniProt P04230 30-225) (peptide-MHC) | 
7 |  |  |  |  | 0.29 | T102S(C)-Cy3 peptide on His-tagged IE^k (from UniProt P04230 30-225) (peptide-MHC) | 

From PMC7052167, “TCR–pMHC bond conformation controls TCR ligand discrimination” (Cellular and Molecular Immunology, 2019)
